Source: patent US12534541B2, “Anti-PTK7 antibody and uses thereof” (MABCARE THERAPEUTICS, priority 2023, dated 2026)

Columns and labels:
[1] = test system: lung squamous cell carcinoma PDX LD1-0025-200615; assay: In vivo anti-tumor activity against human lung squamous cell carcinoma PDX LD1-0025-200615; details: NU/NU mice, i.v. 5 mg/kg, once a week, 2 doses, vs negative control
Protocol: (§1) 6-week-old NU/NU mice, female, weighing 18-21 g, were purchased from Beijing Vital River Laboratory Animal Technology Co., Ltd. The mice were subcutaneously inoculated with lung squamous cell carcinoma tumor mass (specimen no. 200615, obtained from Xi'an LIDE Biotech Co. Ltd.). When the average tumor volume reached 150 mm^3, the antibody-drug conjugate Ab13-T1000-exatecan as prepared in Example 5 was administered intravenously at a dose of 10 mg/kg, the antibody-drug conjugate h6M24-vc0101 as prepared in Example 8 was administered intravenously at a dose of 5 mg/kg, and a negative control Vehicle group was set and administered intravenously with PBS at an equal dose, once a week for a total of 2 doses. After dosing, the tumor volume was measured twice a week using a vernier caliper and calculated according to the following formula: TV=(length*width^2)/2.

[2] = test system: colorectal cancer PDX LD1-2038-361980; assay: In vivo anti-tumor activity against human colorectal cancer PDX LD1-2038-361980; details: NU/NU mice, i.v. 5 mg/kg, once a week, 2 doses, vs negative control
Protocol: as §1, with “colorectal cancer” for “lung squamous cell carcinoma”, “361980,” for “200615,”

[3] = test system: triple-negative breast cancer PDX LD1-2009-361918; format: in vivo; details: NU/NU mice, i.v. 5 mg/kg, once a week, 2 doses, vs negative control
Protocol: 6-week-old NU/NU mice, female, weighing 18-21 g, were purchased from Beijing Vital River Laboratory Animal Technology Co., Ltd. The mice were subcutaneously inoculated with triple-negative breast cancer tumor mass (specimen no. 361918, obtained from Xi'an LIDE Biotech Co. Ltd.). […] After dosing, the tumor volume was measured twice a week using a vernier caliper and calculated according to the following formula: TV=(length*width^2)/2.

[4] = test system: small cell lung cancer PDX LD1-2025-362797; assay: In vivo anti-tumor activity against human small cell lung cancer PDX LD1-2025-362797; details: NU/NU mice, i.v. 5 mg/kg, 1 dose, vs negative control
Protocol: 6-week-old NU/NU mice, female, weighing 18-21 g, were purchased from Beijing Vital River Laboratory Animal Technology Co., Ltd. The mice were subcutaneously inoculated with small cell lung cancer tumor mass (specimen no. 362797, obtained from Xi'an LIDE Biotech Co. Ltd.). When the average tumor volume reached 150 mm^3, the antibody-drug conjugates Ab13-T1000-exatecan and h6M24-T1000-exatecan as prepared in Example 5 were administered intravenously at a dose of 10 mg/kg, respectively, the antibody-drug conjugate h6M24-vc0101 as prepared in Example 8 was administered intravenously at a dose of 5 mg/kg, and a negative control Vehicle group was set and administered intravenously with PBS at an equal dose, once a week for a total of 1 dose. After dosing, the tumor volume was measured twice a week using a vernier caliper and calculated according to the following formula: TV=(length*width^2)/2.

[5] = test system: head and neck squamous cell carcinoma PDX LD1-0023-200615; assay: In vivo anti-tumor activity against human head and neck squamous cell carcinoma PDX LD1-0023-200615; details: NU/NU mice, i.v. 5 mg/kg, once a week, 2 doses, vs negative control
Protocol: as §1, with “head and neck” for “lung”

[6] = Size exclusion chromatography (SEC) for the degree of aggregation; format: physicochemical; details: integral analysis, product after preparation
Protocol: (§2) Activated charcoal powder (30 mg of powder per ml of liquid) was then added to the collection solution, which was suspended for 2 h at room temperature, centrifuged, and sterilized using a 0.22 μm filter membrane, and the activated charcoal particles were removed at the same time. The resulting product was calculated by UV for its concentration and DAR value, detected by hydrophobic chromatography (HIC) for product homogeneity, and detected by size exclusion chromatography (SEC) for the degree of aggregation. The products were placed in a refrigerator at −80° C. for cryopreservation.
as §2, with “At the end of the reaction, the coupling reaction mixture was immediately desalted and exchanged with histidine-acetic acid/NaCl buffer using a desalting column. Activated” for “Activated”, “product was” for “products were”, “cryopreservation. […]” for “cryopreservation.”

[7] = test system: cervical squamous cell carcinoma PDX LD1-0010-362343; assay: In vivo anti-tumor activity against human cervical squamous cell carcinoma PDX LD1-0010-362343; details: NU/NU mice, i.v. 5 mg/kg, once a week, 2 doses, vs negative control
Protocol: as §1, with “cervical” for “lung”, “362343,” for “200615,”

B1: h6M24-vc0101: control drug: h6M24 (cofetuzumab) linked to Aur0101 via mc-VC-PAB linker, DAR about 4 (conjugate, chains of the INN, looked up)
VH: QVQLVQSGPEVKKPGASVKVSCKASGYTFTDYAVHWVRQAPGKRLEWIGVISTYNDYTYNNQDFKGRVTMTRDTSASTAYMELSRLRSEDTAVYYCARGNSYFYALDYWGQGTSVTVSS
VL: EIVLTQSPATLSLSPGERATLSCRASESVDSYGKSFMHWYQQKPGQAPRLLIYRASNLESGIPARFSGSGSGTDFTLTISSLEPEDFAVYYCQQSNEDPWTFGGGTKLEIK
modifications: Aur0101 via mc-VC-PAB linker, DAR 4
For B1, the “tumor growth inhibition (tumor volume over time)” value [1] was “partially inhibit tumor growth”, the “tumor growth inhibition (tumor volume over time)” value [2] was “does not produce any tumor growth inhibitory effect” and the “tumor growth inhibition (tumor volume over time)” value [3] was “does not produce any tumor growth inhibitory effect”. The “tumor growth inhibition (tumor volume over time)” value [4] was “does not produce any tumor growth inhibitory effect”, the “tumor growth inhibition (tumor volume over time)” value [5] was “significantly inhibit tumor growth” and the percentage of aggregates [6] was 1.39%. For the same molecule, the “tumor growth inhibition (tumor volume over time)” value [7] was “significantly inhibit tumor growth”.
